Experimental data published in patent publication US20260209365A1, “ANTI-COMMON GAMMA CHAIN PROTEINS AND COMPOSITIONS OF MATTER” (SINOMAB BIOSCIENCE LIMITED, priority 2023, published 2026).
Numbering of substitutions follows the chain as printed.

B1: hSM-05A: full-length humanized anti-γc antibody derived from SM-05A by framework patching (antibody, V domains shown)
VH: QVQLVQSGAEVLKPGASVKVSCKASGYTFTEYTMHWVKQARGQRLEWIGGIDPYNGGATYNQRFKGKATLTTDTSTSTAYMELRNLRSDDTAVYYCARRRLYYGNALDYWGQGTLVTVSS
VL: DIVMTQSPLSLPVTPGEQASISCRSSQSLVHSNGNTYLHWYLQKPGQSPQLLIYKVSSRFSGVPDRFSGSGSGTDFTLKISRVEAEDVGVYFCSQTTHVPFTFGSGTKLEIKR
B2: hSM-05E: full-length humanized anti-γc antibody derived from SM-05E by framework patching (antibody, V domains shown)
VH: B1 VH with Y54N, N55T, A58V, R63K, L101R, N105Y
VL: B1 VL with L29I, H39E, S58N, T96S, T102M

How the values were obtained:
[1] = system: IL-9 induced ERK phosphorylation; experiment: Western blot of IL-9 induced ERK phosphorylation in Jurkat T cells; type: cell-based, human; settings: humanized antibodies; 33 nM (5 μg/ml)
BCL-2 expression = experiment: IL-7 induced BCL-2 expression in HPB-ALL, flow cytometry; type: cell-based, human; settings: humanized antibodies, 33 nM, vs ritlecitinib
Procedure: Several assays, such as were proposed to study cell survival of HPB-ALL from literature [Ribeiro et al., Blood Adv., 2018; 2 (17): 2199-2213] was measured in terms of BCL2 (anti-apoptotic marker) expressing cells by flow cytometry. In brief, HPB-ALL was pre-treated with antibodies or inhibitors for an hour before stimulated with 50 ng/ml IL-7 for 3 days. Cells were harvested and stained with FITC-conjugated BCL-2 antibody (Biolegend) for flow cytometry analysis.

[2] = system: CD127 internalization and degradation; experiment: IL-7 induced CD127 internalization and degradation in HPB-ALL, flow cytometry; type: cell-based, human; settings: humanized antibodies, 33 nM, vs ritlecitinib
From the text: Specific methods for IL-7 function were developed in HPB-ALL [Henriques et al., Blood., 2010; 115 (16): 3269-77]. IL-7 could trigger the internalization of its own receptor, CD127 (or IL-7Rai), into the cell compartment for degradation. As the CD127 degradation depends on the JAK3 activated status after IL-7 stimulation, blockade of γc binding to CD127 and downstream signaling pathway should stop CD127 internalization and degradation in HPB-ALL.
After antibody or inhibitor pretreatment, HPB-ALL was challenged with 50 ng/ml IL-7 for 3 hours. Surface CD127 expression was performed in live cells while total CD127 expression was investigated in PFA fixed and permeabilized cells. Cells were stained with APC-conjugated CD127 antibody for flow cytometry analysis.

[3] = system: native γc proteins from common marmoset; experiment: Binding to native common marmoset γc on transfected HEK-293 cells, flow cytometry; type: cell-based; settings: FITC-labelled antibody 33 nM (5 μg/ml)
Procedure: The binding specificities of humanized anti-γc antibodies to native γc proteins were further evaluated by […] binding assay. In brief, human HEK-293 cells were transfected with plasmid expressing full length γc protein from human, rhesus, cynomolgus or common marmoset. Two days later, transfected cells or non-transfected controls were incubated with FITC-conjugated hSM-05A on ice for an hour before analysis by flow cytometry.

Jurkat T cells = experiment: IL-9 rescue of ceramide induced Jurkat cell death, WST-8; type: cell-based, human; settings: ceramide 50 μM; IL-9 50 ng/ml; three days
Procedure: Jurkat T cells were pretreated with anti-γc antibodies or ritlecitinib before the application of anti-tumor ceramide (50 μM) and IL-9 (50 ng/ml) for three days. To evaluate cell survival, 10 μl WST-8 reagent was added to each well and incubated for 4 hours before spectrophotometer measurement.

rat γc = experiment: BLI binding kinetics to rat γc protein
Sequence of rat γc (as listed by the source): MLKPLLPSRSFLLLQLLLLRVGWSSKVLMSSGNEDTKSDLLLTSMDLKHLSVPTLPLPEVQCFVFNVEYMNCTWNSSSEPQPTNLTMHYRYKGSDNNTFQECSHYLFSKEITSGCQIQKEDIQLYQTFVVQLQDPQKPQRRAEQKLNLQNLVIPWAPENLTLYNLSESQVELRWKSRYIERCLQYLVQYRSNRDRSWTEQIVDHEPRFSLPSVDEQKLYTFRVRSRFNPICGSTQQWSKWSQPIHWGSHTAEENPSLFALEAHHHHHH

Sequence of native γc proteins from common marmoset (as listed by the source): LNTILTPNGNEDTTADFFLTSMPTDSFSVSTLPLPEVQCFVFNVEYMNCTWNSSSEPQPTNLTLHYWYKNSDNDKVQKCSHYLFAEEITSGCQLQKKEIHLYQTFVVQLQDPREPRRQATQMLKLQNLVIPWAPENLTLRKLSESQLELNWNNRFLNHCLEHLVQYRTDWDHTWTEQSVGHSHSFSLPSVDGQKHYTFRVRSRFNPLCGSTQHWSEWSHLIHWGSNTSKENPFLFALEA

| Molecule | suppression of IL-9 induced ERK phosphorylation [1] | suppression of IL-7 induced BCL-2 upregulation (BCL-2 expression) | suppression of IL-7 induced CD127 degradation [2] | binding to native common marmoset γc on HEK-293 [3] | suppression of IL-9 rescue of ceramide induced Jurkat cell death (Jurkat T cells) | Ka (rat γc) | Kdis (rat γc) |
| --- | --- | --- | --- | --- | --- | --- | --- |
| B1 | better suppression to IL-9 induced ERK phosphorylation than hSM-05E | better suppression to IL-7 induced BCL-2 upregulation and CD127 degradation than ritlecitinib | better suppression to IL-7 induced BCL-2 upregulation and CD127 degradation than ritlecitinib | could bind to the native γc proteins from humans and common marmoset | could suppress the IL-9 effect |  |  |
| B2 |  |  |  |  |  | 71000 M⁻¹ s⁻¹ | 0.00208 s⁻¹ |
